Laboratory results: the supplement of paper PMC10126150
± gives the standard deviation of the averaged measurements.

tested on: ATP; assay: switch fluorescence ratio, 500 uM ATP over buffer (Cy3 cluster intensity, sum of 5 cycles each) (fold (ratio)); higher = stronger signal-on switching upon ATP binding; sequences stand for … in TCGTCGGCAGCGTCAGATGTGTATAAGAGACAGTTTTTTTTTTTTTTTTTTTTTTTTT…TC; settings: aptamer strand: ATP DNA aptamer (quencher-CACCTGGGGGAGTATTGCGGAGGAAGG + anchor), 100 nM annealed; ATP concentration: 500 uM
Method in brief: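 For every switch-domain sequence, the fluorescence ratio is the mean of per-cluster values, each being summed target-cycle Cy3 intensity over summed buffer-cycle Cy3 intensity. Clusters outside 100-1000 RFU were excluded. On a modified Illumina MiSeq flow-cell, the Cy3-labelled switching-strand clusters were annealed to 100 nM quencher-labelled ATP aptamer, imaged in selection buffer and then after 15 min with 500 uM ATP at 22 °C. Five such cycles were run, with NaOH stripping and re-annealing between them.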
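Further: ATP exposure 15 min at 22 °C before imaging.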

Sequence	switch fluorescence ratio
GGAGTAATTT	1.07 ± 0.016
ATTTTGTTTT	1.01 ± 0.061
GGACTACCTG	1.01 ± 0.022
CGTGTAGTCC	1.1 ± 0.086
TCGGGGGTGA	1 ± 0.021
AAGGGCAGAA	0.973 ± 0.03
ACAGCAGCGG	1.05 ± 0.021
ATTGAATAGG	1.0089 ± 0.0003
GTTACATTAA	1.01 ± 0.021
ATAGAGGGAT	0.98 ± 0.026
CCGTTGGGGG	1.01 ± 0.036
GTGCTTCGGT	0.948 ± 0.026
AGGGGTGGTA	0.981 ± 0.043
TACAAGGAGA	1 ± 0.012
AATTCCTAGG	1.03 ± 0.025
AGGGTTGGTA	1.01 ± 0.011
CAGAGGATAG	1.017 ± 0.0088
TGATTTGGTT	0.9903 ± 0.0083
TTTTCGAGGG	1.01 ± 0.023
TTGATTTGGT	1 ± 0.011
ACTTGTTTAT	0.981 ± 0.032
GCAAGCAAGA	1.18 ± 0.067

Sequence	switch fluorescence ratio
CCTTAATCTT	0.987 ± 0.026
GTTATATATG	1.015 ± 0.0029
TGAGTGCCTA	0.973 ± 0.047
TTACTGTGTT	1 ± 0.034
TCAGTTTTTC	1.013 ± 0.0022
GGGGTAATTT	1.02 ± 0.035
ACCTTATATA	1.056 ± 0.0094
TGAACTCGGG	0.989 ± 0.017
TTACTTGAAT	0.969 ± 0.039
AATATAAATA	1.019 ± 0.0072
CTTGAAAAGG	0.9995 ± 0.0038
TAATGAATGT	1.02 ± 0.04
AGTCAAATGG	0.996 ± 0.043
CGCATGAGTT	1.017 ± 0.0098
ACGGGCGGCA	1.16 ± 0.23
GCGGCTGTCG	0.948 ± 0.085
TTAACCGGGT	1.01 ± 0.057
TATTGGTTAA	0.974 ± 0.021
TTTTAAAGGG	0.993 ± 0.045
CGGGGGAGAG	0.9847 ± 0.009
CGTCAGCGGC	1.25 ± 0.053
AGCAATATGG	2.49 ± 0.051

Sequence	switch fluorescence ratio
ATGGGCCCAT	1.01 ± 0.011
CGGTTGGGCC	0.993 ± 0.014
CATGGGGTGT	1.01 ± 0.013
ACATGGGGAG	1.02 ± 0.016
TTGTGTC	1.06 ± 0.023
GCGGCGGCGT	1.002 ± 0.0023
TAATAAATCT	0.9967 ± 0.0051
CTATCATCAT	0.9978 ± 0.0084
ATTCATGCTC	1.03 ± 0.031
GGCTATCTTT	1 ± 0.029
CTGTAAGTCT	0.989 ± 0.011
TATGATAACT	1.031 ± 0.0077
AAAGTTTTGG	0.985 ± 0.026
GGTCGTAAGT	0.988 ± 0.026
TGGAAGAAAT	1.02 ± 0.011
TTTTTCAGGG	1.01 ± 0.026
GTGGGGCAGC	0.945 ± 0.015
AAAAGGAGAC	1.01 ± 0.028
TGATTTTTTT	1.01 ± 0.031
GGAATTATTG	1.08 ± 0.15
GTTGGAAAGG	0.97 ± 0.039
AACTGGACTC	1.14 ± 0.013

Sequence	switch fluorescence ratio
AGGAACTTTT	1.42 ± 0.56
CCCTAGTATG	0.9915 ± 0.0059
GGAACGGGTC	1.02 ± 0.024
TCAGATATTG	0.992 ± 0.04
TTATTATGTG	0.946 ± 0.022
AGTATATATT	1.003 ± 0.0035
AAAAGGCGTG	1.01 ± 0.021
ACCGGGGTTA	0.986 ± 0.033
GTTGGTGGCG	1.02 ± 0.044
GGATTGGATG	0.983 ± 0.046
GGTCGATGGT	0.99 ± 0.011
CAAATAACAT	1.01 ± 0.015
TCGTGGGAAG	0.9721 ± 0.0062
TTTGACAAGC	1.15 ± 0.18
AGTGTGCAGG	0.992 ± 0.017
TATTGAGAGT	0.991 ± 0.032
GTGTACTCAT	1.01 ± 0.035
TTTTAGGCCG	1.03 ± 0.042
AGACTGACAA	1.1 ± 0.021
